Columns and labels:
[1] = target: BCMA-CAR with a CD3zeta signaling motif on CAR-Jurkat cells; assay: cell-based or functional assay
[2] = target: anti-CD19 chimeric antigen receptor (CAR) on Jurkat NFAT-GFP cells; assay: cell-based or functional assay

Row | IC50 of inhibition of BCMA-CAR-Jurkat cell activation (CD69) by NCI-H929 cells [1] [nM] | IC50 of inhibition of CAR-Jurkat activation (NFAT-GFP) by K562 cells [2] [nM] | NFAT-GFP downregulated at the maximum concentration tested [2] [%] | Substance
1 | 36 |  |  | BCMAwt-Fc fusion protein (pDP39-BCMA ECD-FC)
2 |  | 200 | 30 | CD19 wt-Fc (pDP10 CD19-WT FC) (Fc fusion)

Source: patent US20260078162A1
